Experimental data published in the supplement of paper PMC12338614.
± gives the uncertainty stated by the source.

B1: library; numbered along this chain (parent)
chain: MEVVDPQQLGMFTEGELMSVGMDTFIHRIDSTEVIYQPRRKRAKLIGKYLMGDLLGEGSYGKVKEVLDSETLCRRAVKILKKKKLRRIPNGEANVKKEIQLLRRLRHKNVIQLVDVLYNEEKQKMYMVMEYCVCGMQEMLDSVPEKRFPVCQAHGYFCQLIDGLEYLHSQGIVHKDIKPGNLLLTTGGTLKISDLGVAEALHPFAADDTCRTSQGSPAFQPPEIANGLDTFSGFKVDIWSAGVTLYNITTGLYPFEGDNIYKLFENIGKGSYAIPGDCGPPLSDLLKGMLEYEPAKRFSIRQIRQHSWFRKKHPPAEAPVPIPPSPDTKDRWRSMTVVPYLEDLHGADEDEDLFDIEDDIIYTQDFTVPGQVPEEEASHNGQRRGLPKAVCMNGTEAAQLSTKSRAEGRAPNPARKACSASSKIRRLSACKQQ

Variants of: B1
Assay: STK11 functional score (HeLa growth suppression), rescaled enrichment; synonymous median = 1, nonsense median = 0 (normalised score)
Details: with HeLa; variant type: missense
How it was run: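 The functional score takes the post/pre-selection log ratio, corrects it to wild type, rescales it to synonymous and nonsense medians, and merges it over codons and replicate transfections, with error from bootstrapping. Counts came from tiled gDNA amplicons sequenced on NextSeq (~2 million reads per tile). The libraries were POPCode codon-randomised, codon-optimised STK11 integrated by Bxb1 at an AAVS1 landing pad in HeLa, three regions with three transfections each.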

Variant	STK11 functional score
MEVVDPQQLGMFTEGELMSVGMDTFIHRIDSTEVIYQPRRKRAKLIGKYLMGDLLGEGSYGKVKEVLDSETLCRRAVKILKKKKLRRIPNGEANVKKEIQLLRRLRHKNVIQLVDVLYNEEKQKMYMVMEYCVCGMQEMLDSVPEKRFPVCQAHGYFCQLIDGLEYLHSQGIVHKDIKPGNLLLTTGGTLKISDLGVAEALHPFAADDTCRTSQGSPAFQPPEIANGLDTFSGFKVDIWSAGVTLYNITTGLYPFEGDNIYKLFENIGKGSYAIPGDCGPPLSDLLKGMLEYEPAKRFSIRQIRQHSWFRKKHPPAEAPVPIPPSPDTKDRWRSMTVVPYLEDLHGADEDEDLFDIEDDIIYTQDFTVPGQMPEEEASHNGQRRGLPKAVCMNGTEAAQLSTKSRAEGRAPNPARKACSASSKIRRLSACKQQ [V372M]	0.74 ± 0.69
MEVVDPQQLGMFTEGELMSVGMDTFIHRIDSTEVIYQPRRKRAKLIGKYLMGDLLGEGSYGKVKEVLDSETLCRRAVKILKKKKLRRIPNGEANVKKEIQLLRRLRHKNVIQLVDVLYNEEKQKMYMVMEYCVCGMQEMLDSVPEKRFPVCQAHGYFCQLIDGLEYLHSQGIVHKDIKPGNLLLTTGGTLKISDLGVAEALHPFAADDTCRTSQGSPAFQPPEIANGLDTFSGFKVDIWSAGVTLYNITTGLYPFEGDNIYKLFENIGKGSYAIPGDCGPPLSDLLKGMLEYEPAKRFSIRQIRQHSWFRKKHPPAEAPVPIPPSPDTKDRWRSMTVVPYLEDLHGADEDEDLFDIEDDIIYTQDFTVPGQKPEEEASHNGQRRGLPKAVCMNGTEAAQLSTKSRAEGRAPNPARKACSASSKIRRLSACKQQ [V372K]	1.6 ± 0.24
MEVVDPQQLGMFTEGELMSVGMDTFIHRIDSTEVIYQPRRKRAKLIGKYLMGDLLGEGSYGKVKEVLDSETLCRRAVKILKKKKLRRIPNGEANVKKEIQLLRRLRHKNVIQLVDVLYNEEKQKMYMVMEYCVCGMQEMLDSVPEKRFPVCQAHGYFCQLIDGLEYLHSQGIVHKDIKPGNLLLTTGGTLKISDLGVAEALHPFAADDTCRTSQGSPAFQPPEIANGLDTFSGFKVDIWSAGVTLYNITTGLYPFEGDNIYKLFENIGKGSYAIPGDCGPPLSDLLKGMLEYEPAKRFSIRQIRQHSWFRKKHPPAEAPVPIPPSPDTKDRWRSMTVVPYLEDLHGADEDEDLFDIEDDIIYTQDFTVPGQGPEEEASHNGQRRGLPKAVCMNGTEAAQLSTKSRAEGRAPNPARKACSASSKIRRLSACKQQ [V372G]	1.09 ± 0.47
MEVVDPQQLGMFTEGELMSVGMDTFIHRIDSTEVIYQPRRKRAKLIGKYLMGDLLGEGSYGKVKEVLDSETLCRRAVKILKKKKLRRIPNGEANVKKEIQLLRRLRHKNVIQLVDVLYNEEKQKMYMVMEYCVCGMQEMLDSVPEKRFPVCQAHGYFCQLIDGLEYLHSQGIVHKDIKPGNLLLTTGGTLKISDLGVAEALHPFAADDTCRTSQGSPAFQPPEIANGLDTFSGFKVDIWSAGVTLYNITTGLYPFEGDNIYKLFENIGKGSYAIPGDCGPPLSDLLKGMLEYEPAKRFSIRQIRQHSWFRKKHPPAEAPVPIPPSPDTKDRWRSMTVVPYLEDLHGADEDEDLFDIEDDIIYTQDFTVPGQNPEEEASHNGQRRGLPKAVCMNGTEAAQLSTKSRAEGRAPNPARKACSASSKIRRLSACKQQ [V372N]	1.54 ± 0.25
MEVVDPQQLGMFTEGELMSVGMDTFIHRIDSTEVIYQPRRKRAKLIGKYLMGDLLGEGSYGKVKEVLDSETLCRRAVKILKKKKLRRIPNGEANVKKEIQLLRRLRHKNVIQLVDVLYNEEKQKMYMVMEYCVCGMQEMLDSVPEKRFPVCQAHGYFCQLIDGLEYLHSQGIVHKDIKPGNLLLTTGGTLKISDLGVAEALHPFAADDTCRTSQGSPAFQPPEIANGLDTFSGFKVDIWSAGVTLYNITTGLYPFEGDNIYKLFENIGKGSYAIPGDCGPPLSDLLKGMLEYEPAKRFSIRQIRQHSWFRKKHPPAEAPVPIPPSPDTKDRWRSMTVVPYLEDLHGADEDEDLFDIEDDIIYTQDFTVPGQLPEEEASHNGQRRGLPKAVCMNGTEAAQLSTKSRAEGRAPNPARKACSASSKIRRLSACKQQ [V372L]	1.4 ± 0.3
MEVVDPQQLGMFTEGELMSVGMDTFIHRIDSTEVIYQPRRKRAKLIGKYLMGDLLGEGSYGKVKEVLDSETLCRRAVKILKKKKLRRIPNGEANVKKEIQLLRRLRHKNVIQLVDVLYNEEKQKMYMVMEYCVCGMQEMLDSVPEKRFPVCQAHGYFCQLIDGLEYLHSQGIVHKDIKPGNLLLTTGGTLKISDLGVAEALHPFAADDTCRTSQGSPAFQPPEIANGLDTFSGFKVDIWSAGVTLYNITTGLYPFEGDNIYKLFENIGKGSYAIPGDCGPPLSDLLKGMLEYEPAKRFSIRQIRQHSWFRKKHPPAEAPVPIPPSPDTKDRWRSMTVVPYLEDLHGADEDEDLFDIEDDIIYTQDFTVPGQHPEEEASHNGQRRGLPKAVCMNGTEAAQLSTKSRAEGRAPNPARKACSASSKIRRLSACKQQ [V372H]	1.61 ± 0.23
MEVVDPQQLGMFTEGELMSVGMDTFIHRIDSTEVIYQPRRKRAKLIGKYLMGDLLGEGSYGKVKEVLDSETLCRRAVKILKKKKLRRIPNGEANVKKEIQLLRRLRHKNVIQLVDVLYNEEKQKMYMVMEYCVCGMQEMLDSVPEKRFPVCQAHGYFCQLIDGLEYLHSQGIVHKDIKPGNLLLTTGGTLKISDLGVAEALHPFAADDTCRTSQGSPAFQPPEIANGLDTFSGFKVDIWSAGVTLYNITTGLYPFEGDNIYKLFENIGKGSYAIPGDCGPPLSDLLKGMLEYEPAKRFSIRQIRQHSWFRKKHPPAEAPVPIPPSPDTKDRWRSMTVVPYLEDLHGADEDEDLFDIEDDIIYTQDFTVPGQPPEEEASHNGQRRGLPKAVCMNGTEAAQLSTKSRAEGRAPNPARKACSASSKIRRLSACKQQ [V372P]	1.48 ± 0.24
